Laboratory results taken from the supplement of paper PMC5998384.

Experiments:
HeLa Kyoto [1] = assay: thermal stability score vs G1/S (z-score of summed log2 fold changes over temperatures); higher = more thermally stable than in G1/S
HeLa Kyoto [2] = assay: melting temperature (median over replicates), in situ; higher = more thermally stable
HeLa Kyoto [3] = assay: solubility change mitosis vs G1/S (difference of NP-40 vs SDS log2 ratios) (log2 ratio difference); higher = more soluble in mitosis
HeLa Kyoto [4] = assay: solubility in G1/S (NP-40 vs SDS abundance) (log2 ratio); higher = more soluble; details: cell cycle stage: G1/S
[5] = cell cycle stage: early G1 (4.5 h after nocodazole release)
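Throughout, for melting temperature (median over replicates), in situ: HeLa Kyoto cells synchronized by double thymidine or nocodazole block, proteins quantified by TMT10plex mass spectrometry, three independent biological replicates.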
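Throughout, for solubility change mitosis vs G1/S (difference of NP-40 vs SDS log2 ratios): synchronized HeLa Kyoto cells (double thymidine block for G1/S, nocodazole release for mitosis), protein amounts in NP-40 versus SDS lysates quantified by mass spectrometry, three biological replicates.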
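Throughout, for solubility in G1/S (NP-40 vs SDS abundance): HeLa Kyoto cells arrested at G1/S by double thymidine block, proteins quantified by TMT10plex mass spectrometry in mild NP-40 versus SDS extracts, three biological replicates.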
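Throughout, for thermal stability score vs G1/S (z-score of summed log2 fold changes over temperatures): synchronized HeLa Kyoto cells, proteins quantified by TMT10plex mass spectrometry, three biological replicates, mitosis taken 0.5 h after nocodazole release, G1/S directly after double thymidine block.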

Sequence of PNN (chain, as listed by the source): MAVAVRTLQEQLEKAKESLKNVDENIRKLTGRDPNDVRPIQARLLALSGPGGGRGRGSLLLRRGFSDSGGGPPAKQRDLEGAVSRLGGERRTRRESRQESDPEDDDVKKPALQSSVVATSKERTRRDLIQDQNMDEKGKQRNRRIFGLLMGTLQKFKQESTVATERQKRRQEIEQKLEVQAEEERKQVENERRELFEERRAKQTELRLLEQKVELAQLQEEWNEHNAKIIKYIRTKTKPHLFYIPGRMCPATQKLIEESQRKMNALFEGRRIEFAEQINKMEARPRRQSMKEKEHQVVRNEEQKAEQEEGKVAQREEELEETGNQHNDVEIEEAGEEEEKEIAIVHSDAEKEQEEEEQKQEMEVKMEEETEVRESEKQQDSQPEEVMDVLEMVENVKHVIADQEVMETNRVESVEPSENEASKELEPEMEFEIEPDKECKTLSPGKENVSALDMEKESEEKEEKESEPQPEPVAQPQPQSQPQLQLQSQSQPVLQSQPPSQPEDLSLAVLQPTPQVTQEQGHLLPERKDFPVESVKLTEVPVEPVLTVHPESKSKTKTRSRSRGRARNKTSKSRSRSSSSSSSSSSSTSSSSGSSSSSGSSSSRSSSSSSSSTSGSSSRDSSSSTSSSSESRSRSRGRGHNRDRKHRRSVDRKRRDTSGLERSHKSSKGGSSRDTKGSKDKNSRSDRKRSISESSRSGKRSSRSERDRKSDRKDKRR

| Substance | thermal stability score (HeLa Kyoto [1]; [5]) | thermal stability score (HeLa Kyoto [1]; cell cycle stage: mitosis) | melting temperature (HeLa Kyoto [2]; cell cycle stage: G1/S) | melting temperature (HeLa Kyoto [2]; cell cycle stage: mitosis) | solubility change mitosis (log2) (HeLa Kyoto [3]) | solubility in G1/S (log2) (HeLa Kyoto [4]) |
| --- | --- | --- | --- | --- | --- | --- |
| MRMSVGLSLLLPLSGRTFLLLLSVVMAQSHWPSEPSEAVRDWENQLEASMHSVLSDLHEAVPTVVGIPDGTAVVGRSFRVTIPTDLIASSGDIIKVSAAGKEALPSWLHWDSQSHTLEGLPLDTDKGVHYISVSATRLGANGSHIPQTSSVFSIEVYPEDHSELQSVRTASPDPGEVVSSACAADEPVTVLTVILDADLTKMTPKQRIDLLHRMRSFSEVELHNMKLVPVVNNRLFDMSAFMAGPGNAKKVVENGALLSWKLGCSLNQNSVPDIHGVEAPAREGAMSAQLGYPVVGWHIANKKPPLPKRVRRQIHATPTPVTAIGPPTTAIQEPPSRIVPTPTSPAIAPPTETMAPPVRDPVPGKPTVTIRTRGAIIQTPTLGPIQPTRVSEAGTTVPGQIRPTMTIPGYVEPTAVATPPTTTTKKPRVSTPKPATPSTDSTTTTTRRPTKKPRTPRPVPRVTTKVSITRLETASPPTRIRTTTSGVPRGGEPNQRPELKNHIDRVDAWVGTYFEVKIPSDTFYDHEDTTTDKLKLTLKLREQQLVGEKSWVQFNSNSQLMYGLPDSSHVGKHEYFMHATDKGGLSAVDAFEIHVHRRPQGDRAPARFKAKFVGDPALVLNDIHKKIALVKKLAFAFGDRNCSTITLQNITRGSIVVEWTNNTLPLEPCPKEQIAGLSRRIAEDDGKPRPAFSNALEPDFKATSITVTGSGSCRHLQFIPVVPPRRVPSEAPPTEVPDRDPEKSSEDDVYLHTVIPAVVVAAILLIAGIIAMICYRKKRKGKLTLEDQATFIKKGVPIIFADELDDSKPPPSSSMPLILQEEKAPLPPPEYPNQSVPETTPLNQDTMGEYTPLRDEDPNAPPYQPPPPFTAPMEGKGSRPKNMTPYRSPPPYVPP [DAG1] | -2.43 | -3.27 | 54.1 °C | 54.9 °C | 0.19 | -0.103 |
| OXSR1 | 1.02 | 0.906 | 49.1 °C | 49.6 °C | -0.146 | 0.197 |
| MEFDLGAALEPTSQKPGVGAGHGGDPKLSPHKVQGRSEAGAGPGPKQGHHSSSDSSSSSSDSDTDVKSHAAGSKQHESIPGKAKKPKVKKKEKGKKEKGKKKEAPH [IMUP] | 1.02 | -1.94 | 59.3 °C |  | 0.311 | 1.09 |
| MLLGGPPRSPRSGTSPKGPWSSTGHVQFGKSPQTWPRRTRPRSPEPAAPSGVRGSTWTRRRDSPRRAGPTALSRYVGHLWMGRRPPSPEARGPVPRSSAASRARRSLASPGISPGPLTATIGGAVAGGGPRQGRAEAHKEVFPGQRVGKMAAPMELFCWSGGWGLPSVDLDSLAVLTYARFTGAPLKVHKISNPWQSPSGTLPALRTSHGEVISVPHKIITHLRKEKYNADYDLSARQGADTLAFMSLLEEKLLPVLVHTFWIDTKNYVEVTRKWYAEAMPFPLNFFLPGRMQRQYMERLQLLTGEHRPEDEEELEKELYREARECLTLLSQRLGSQKFFFGDAPASLDAFVFSYLALLLQAKLPSGKLQVHLRGLHNLCAYCTHILSLYFPWDGAEVPPQRQTPAGPETEEEPYRRRNQILSVLAGLAAMVGYALLSGIVSIQRATPARAPGTRTLGMAEEDEEE [MTX1] | 0.166 | -0.623 | 52.8 °C | 52.4 °C | -0.12 | 0.309 |
| MPNIKIFSGSSHQDLSQKIADRLGLELGKVVTKKFSNQETCVEIGESVRGEDVYIVQSGCGEINDNLMELLIMINACKIASASRVTAVIPCFPYARQDKKDKSRAPISAKLVANMLSVAGADHIITMDLHASQIQGFFDIPVDNLYAEPAVLKWIRENISEWRNCTIVSPDAGGAKRVTSIADRLNVDFALIHKERKKANEVDRMVLVGDVKDRVAILVDDMADTCGTICHAADKLLSAGATRVYAILTHGIFSGPAISRINNACFEAVVVTNTIPQEDKMKHCSKIQVIDISMILAEAIRRTHNGESVSYLFSHVPL [PRPS1] | 1.55 | 0.473 | 57.3 °C | 57.4 °C | -0.136 | -0.185 |
| MSLEDPFFVVRGEVQKAVNTARGLYQRWCELLQESAAVGREELDWTTNELRNGLRSIEWDLEDLEETIGIVEANPGKFKLPAGDLQERKVFVERMREAVQEMKDHMVSPTAVAFLERNNREILAGKPAAQKSPSDLLDASAVSATSRYIEEQQATQQLIMDEQDQQLEMVSGSIQVLKHMSGRVGEELDEQGIMLDAFAQEMDHTQSRMDGVLRKLAKVSHMTSDRRQWCAIAVLVGVLLLVLILLFSL [STX10] | 2.01 | 0.0715 | 52.1 °C | 51.6 °C | -0.107 | -0.293 |
| MESESESGAAADTPPLETLSFHGDEEIIEVVELDPGPPDPDDLAQEMEDVDFEEEEEEEGNEEGWVLEPQEGVVGSMEGPDDSEVTFALHSASVFCVSLDPKTNTLAVTGGEDDKAFVWRLSDGELLFECAGHKDSVTCAGFSHDSTLVATGDMSGLLKVWQVDTKEEVWSFEAGDLEWMEWHPRAPVLLAGTADGNTWMWKVPNGDCKTFQGPNCPATCGRVLPDGKRAVVGYEDGTIRIWDLKQGSPIHVLKGTEGHQGPLTCVAANQDGSLILTGSVDCQAKLVSATTGKVVGVFRPETVASQPSLGEGEESESNSVESLGFCSVMPLAAVGYLDGTLAIYDLATQTLRHQCQHQSGIVQLLWEAGTAVVYTCSLDGIVRLWDARTGRLLTDYRGHTAEILDFALSKDASLVVTTSGDHKAKVFCVQRPDR [AAMP] | -1.15 | -3.66 | 51.3 °C | 51.6 °C | -0.112 | -0.15 |
| MSDHGDVSLPPEDRVRALSQLGSAVEVNEDIPPRRYFRSGVEIIRMASIYSEEGNIEHAFILYNKYITLFIEKLPKHRDYKSAVIPEKKDTVKKLKEIAFPKAEELKAELLKRYTKEYTEYNEEKKKEAEELARNMAIQQELEKEKQRVAQQKQQQLEQEQFHAFEEMIRNQELEKERLKIVQEFGKVDPGLGGPLVPDLEKPSLDVFPTLTVSSIQPSDCHTTVRPAKPPVVDRSLKPGALSNSESIPTIDGLRHVVVPGRLCPQFLQLASANTARGVETCGILCGKLMRNEFTITHVLIPKQSAGSDYCNTENEEELFLIQDQQGLITLGWIHTHPTQTAFLSSVDLHTHCSYQMMLPESVAIVCSPKFQETGFFKLTDHGLEEISSCRQKGFHPHSKDPPLFCSCSHVTVVDRAVTITDLR [STAMBP] | 0.214 | 0.921 | 48.6 °C | 49.7 °C | -0.118 | 0.276 |
| MSYTGFVQGSETTLQSTYSDTSAQPTCDYGYGTWNSGTNRGYEGYGYGYGYGQDNTTNYGYGMATSHSWEMPSSDTNANTSASGSASADSVLSRINQRLDMVPHLETDMMQGGVYGSGGERYDSYESCDSRAVLSERDLYRSGYDYSELDPEMEMAYEGQYDAYRDQFRMRGNDTFGPRAQGWARDARSGRPMASGYGRMWEDPMGARGQCMSGASRLPSLFSQNIIPEYGMFQGMRGGGAFPGGSRFGFGFGNGMKQMRRTWKTWTTADFRTKKKKRKQGGSPDEPDSKATRTDCSDNSDSDNDEGTEGEATEGLEGTEAVEKGSRVDGEDEEGKEDGREEGKEDPEKGALTTQDENGQTKRKLQAGKKSQDKQKKRQRDRMVERIQFVCSLCKYRTFYEDEMASHLDSKFHKEHFKYVGTKLPKQTADFLQEYVTNKTKKTEELRKTVEDLDGLIQQIYRDQDLTQEIAMEHFVKKVEAAHCAACDLFIPMQFGIIQKHLKTMDHNRNRRLMMEQSKKSSLMVARSILNNKLISKKLERYLKGENPFTDSPEEEKEQEEAEGGALDEGAQGEAAGISEGAEGVPAQPPVPPEPAPGAVSPPPPPPPEEEEEGAVPLLGGALQRQIRGIPGLDVEDDEEGGGGAP [AKAP8L] | 0.782 | 1.54 | 47.1 °C | 48.8 °C | 0.0856 | -0.123 |
| KIF14 | -0.945 | -2.77 | 49.1 °C | 45.5 °C | -0.0203 | -0.297 |
| URB1 | 0.229 | 0.403 |  | 50.5 °C | 0.746 | -1.55 |
| SAMD9 | 0.5 | 1.68 | 47.5 °C | 49.2 °C | -0.171 | -0.156 |
| MEELIVELRLFLELLDHEYLTSTVREKKAVITNILLRIQSSKGFDVKDHAQKQETANSLPAPPQMPLPEIPQPWLPPDSGPPPLPTSSLPEGYYEEAVPLSPGKAPEYITSNYDSDAMSSSYESYDEEEEDGKGKKTRHQWPSEEASMDLVKDAKICAFLLRKKRFGQWTKLLCVIKDTKLLCYKSSKDQQPQMELPLQGCNITYIPKDSKKKKHELKITQQGTDPLVLAVQSKEQAEQWLKVIKEAYSGCSGPVDSECPPPPSSPVHKAELEKKLSSERPSSDGEGVVENGITTCNGKEQVKRKKSSKSEAKGTVSKVTGKKITKIISLGKKKPSTDEQTSSAEEDVPTCGYLNVLSNSRWRERWCRVKDNKLIFHKDRTDLKTHIVSIPLRGCEVIPGLDSKHPLTFRLLRNGQEVAVLEASSSEDMGRWIGILLAETGSSTDPEALHYDYIDVEMSASVIQTAKQTFCFMNRRVISANPYLGGTSNGYAHPSGTALHYDDVPCINGSLKGKKPPVASNGVTGKGKTLSSQPKKADPAAVVKRTGSNAAQYKYGKNRVEADAKRLQTKEEELLKRKEALRNRLAQLRKERKDLRAAIEVNAGRKPQAILEEKLKQLEEECRQKEAERVSLELELTEVKESLKKALAGGVTLGLAIEPKSGTSSPQSPVFRHRTLENSPISSCDTSDTEGPVPVNSAAVLKKSQAAPGSSPCRGHVLRKAKEWELKNGT [AFAP1] | -1.47 | -2.94 | 50.5 °C | 49.7 °C | 0.451 | -0.611 |
| MPKVKSGAIGRRRGRQEQRRELKSAGGLMFNTGIGQHILKNPLIINSIIDKAALRPTDVVLEVGPGTGNMTVKLLEKAKKVVACELDPRLVAELHKRVQGTPVASKLQVLVGDVLKTDLPFFDTCVANLPYQISSPFVFKLLLHRPFFRCAILMFQREFALRLVAKPGDKLYCRLSINTQLLARVDHLMKVGKNNFRPPPKVESSVVRIEPKNPPPPINFQEWDGLVRITFVRKNKTLSAAFKSSAVQQLLEKNYRIHCSVHNIIIPEDFSIADKIQQILTSTGFSDKRARSMDIDDFIRLLHGFNAEGIHFS [DIMT1] | 0.644 | 1.74 | 54.2 °C | 53.2 °C | 0.276 | -0.509 |
| MAAAAASLRGVVLGPRGAGLPGARARGLLCSARPGQLPLRTPQAVALSSKSGLSRGRKVMLSALGMLAAGGAGLAMALHSAVSASDLELHPPSYPWSHRGLLSSLDHTSIRRGFQVYKQVCASCHSMDFVAYRHLVGVCYTEDEAKELAAEVEVQDGPNEDGEMFMRPGKLFDYFPKPYPNSEAARAANNGALPPDLSYIVRARHGGEDYVFSLLTGYCEPPTGVSLREGLYFNPYFPGQAIAMAPPIYTDVLEFDDGTPATMSQIAKDVCTFLRWASEPEHDHRKRMGLKMLMMMALLVPLVYTIKRHKWSVLKSRKLAYRPPK [CYC1] | -5.79 | -6.58 | 54.5 °C | 53.5 °C | -0.106 | 0.869 |
| MEMGRRIHLELRNRTPSDVKELVLDNSRSNEGKLEGLTDEFEELEFLSTINVGLTSIANLPKLNKLKKLELSDNRVSGGLEVLAEKCPNLTHLNLSGNKIKDLSTIEPLKKLENLKSLDLFNCEVTNLNDYRENVFKLLPQLTYLDGYDRDDKEAPDSDAEGYVEGLDDEEEDEDEEEYDEDAQVVEDEEDEDEEEEGEEEDVSGEEEEDEEGYNDGEVDDEEDEEELGEEERGQKRKREPEDEGEDDD [ANP32A] | 0.819 | 2.54 | 52.3 °C | 53.2 °C | 0.466 | -0.297 |
| PNN | 0.124 | 3.19 | 48.6 °C | 50 °C | 0.808 | -1.25 |
